Laboratory results reported in article PMC8792056 (2022).
One block for each molecule: values may come before it.

Assays:
[1] = target: DNAJB14-ΔDUF, FLAG-tagged (human); assay: co-IP; HEK293T cells transfected with FLAG-tagged chaperone (DNAJB12 isoforms alone or with HTT-134Q-GFP or HTT-17Q-GFP; DNAJB14 forms also in cells expressing FUS-WT-YFP or FUS-R521H-YFP), lysed 48 h later in 50 mM HEPES pH 7.9, 0.5% Triton X-100, 5% glycerol, 150 mM NaCl, 2 mM EDTA; anti-FLAG M2 beads 3 h at 4 °C, 7 washes; blot with anti-HSC70/HSP70 for endogenous HSP70
[2] = target: DNAJB14-ΔDUF, FLAG-tagged (human); assay: co-IP; HEK293T cells co-transfected with FLAG-tagged DNAJB14 forms and DNAJB12-FL-mOrange; lysis in 50 mM HEPES pH 7.9, 0.5% Triton X-100, 5% glycerol, 150 mM NaCl, 2 mM EDTA; anti-FLAG M2 beads 3 h at 4 °C, 7 washes; blot with anti-RFP for mOrange, normalised to the FLAG band

interaction as percent of that of DNAJB14-FL [1]: 50%
Molecule: HSP70 (from UniProt P0DMV8 1-641) (natural protein)

fold lower interaction than with DNAJB14-FL [2]: 3 fold
B1: DNAJB12-FL-mOrange (natural protein)
chain: MESNKDEAERCISIALKAIQSNQPDRALRFLEKAQRLYPTPRVRALIESLNQKPQTAGDQPPPTDTTHATHRKAGGTDAPSANGEAGGESTKGYTAEQVAAVKRVKQCKDYYEILGVSRGASDEDLKKAYRRLALKFHPDKNHAPGATEAFKAIGTAYAVLSNPEKRKQYDQFGDDKSQAARHGHGHGDFHRGFEADISPEDLFNMFFGGGFPSSNVHVYSNGRMRYTYQQRQDRRDNQGDGGLGVFVQLMPILILILVSALSQLMVSSPPYSLSPRPSVGHIHRRVTDHLGVVYYVGDTFSEEYTGSSLKTVERNVEDDYIANLRNNCWKEKQQKEGLLYRARYFGDTDMYHRAQKMGTPSCSRLSEVQASLHG
